Source: FireProtDB (doi:10.1093/protein/13.4.299)
“And” between values parts separate entries of the source, which are not always exact repeats. Identical values can stand only once.

Conditions: Homo sapiens, DSC, reversible: yes, whole UniProt chain shown; for Tm / heat capacity change of unfolding / unfolding enthalpy (calorimetric) / unfolding enthalpy (van 't Hoff): Thermal; for denaturant m value / denaturant midpoint (higher = more stable) / unfolding free energy: 25 °C, GdnHCl

B1: Lysozyme C wild type, P61626 (protein)
chain: MKALIVLGLVLLSVTVQGKVFERCELARTLKRLGMDGYRGISLANWMCLAKWESGYNTRATNYNAGDRSTDYGIFQINSRYWCNDGKTPGAVNACHLSCSALLQDNIADAVACAKRVVRDPQGIRAWVAWRNRCQNRDVRQYVQGCGV
pH 2.63, glycine-HCl 50 mM
  Tm: 55.6 °C
  heat capacity change of unfolding: 1.94 kcal/mol/K
  unfolding enthalpy (calorimetric): 90.6 kcal/mol
  unfolding enthalpy (van 't Hoff): 96.3 kcal/mol
pH 2.64, glycine-HCl 50 mM
  Tm: 56.4 °C
  heat capacity change of unfolding: 1.63 kcal/mol/K
  unfolding enthalpy (calorimetric): 95.1 kcal/mol
  unfolding enthalpy (van 't Hoff): 95.6 kcal/mol
pH 2.68, glycine-HCl 50 mM
  Tm: 56.8 °C
  heat capacity change of unfolding: 1.94 kcal/mol/K
  unfolding enthalpy (calorimetric): 92 kcal/mol
  unfolding enthalpy (van 't Hoff): 96.3 kcal/mol
pH 2.75, glycine-HCl 50 mM
  Tm: 58.2 °C
  heat capacity change of unfolding: 1.77 kcal/mol/K
  unfolding enthalpy (calorimetric): 97.5 kcal/mol
  unfolding enthalpy (van 't Hoff): 99 kcal/mol
pH 2.78, glycine-HCl 50 mM
  Tm: 59 °C
  heat capacity change of unfolding: 1.31 kcal/mol/K
  unfolding enthalpy (calorimetric): 98 kcal/mol
  unfolding enthalpy (van 't Hoff): 101 kcal/mol
pH 2.84, glycine-HCl 50 mM
  Tm: 60.3 °C
  heat capacity change of unfolding: 1.67 kcal/mol/K
  unfolding enthalpy (calorimetric): 98.5 kcal/mol
  unfolding enthalpy (van 't Hoff): 103 kcal/mol
pH 2.87, glycine-HCl 50 mM
  Tm: 60.5 °C
  heat capacity change of unfolding: 1.7 kcal/mol/K
  unfolding enthalpy (calorimetric): 99 kcal/mol
  unfolding enthalpy (van 't Hoff): 99 kcal/mol
pH 2.93, glycine-HCl 50 mM
  Tm: 62.5 °C
  heat capacity change of unfolding: 1.46 kcal/mol/K
  unfolding enthalpy (calorimetric): 102 kcal/mol
  unfolding enthalpy (van 't Hoff): 102 kcal/mol
pH 3, glycine-HCl 50 mM
  denaturant m value: 3.23 kcal/mol/M and 3.01 kcal/mol/M
  denaturant midpoint (higher = more stable): 2.9 M and 2.1 M
  unfolding free energy: 9.49 kcal/mol and 6.19 kcal/mol
pH 4, glycine-HCl 50 mM
  denaturant m value: 3.37 kcal/mol/M and 2.96 kcal/mol/M
  denaturant midpoint (higher = more stable): 3.8 M and 2.8 M
  unfolding free energy: 12.9 kcal/mol and 8.25 kcal/mol
pH 7, Sodium phosphate 50 mM
  denaturant m value: 3.01 kcal/mol/M
  denaturant midpoint (higher = more stable): 4 M
  unfolding free energy: 12.1 kcal/mol
